Experimental findings from patent US20250230240A1 (LAVA THERAPEUTICS N V, published 2025) are described below.

Assay [1] has as its target Vγ9Vδ2 T cell receptor on expanded primary human Vγ9Vδ2 T cells (human) (UniProt Q99603). As to the kind of experiment: cell-based or functional assay.
Assay [2] has as its target T1, recombinant purified CD123-Fc fusion protein (Bio-Techne/R&D Systems) (human, UniProt P26951 19-305, limits assumed).
T1 construct: Bought protein; also called recombinant CD123; not shown: Fc part of the bought fusion protein
T1 sequence (looked up): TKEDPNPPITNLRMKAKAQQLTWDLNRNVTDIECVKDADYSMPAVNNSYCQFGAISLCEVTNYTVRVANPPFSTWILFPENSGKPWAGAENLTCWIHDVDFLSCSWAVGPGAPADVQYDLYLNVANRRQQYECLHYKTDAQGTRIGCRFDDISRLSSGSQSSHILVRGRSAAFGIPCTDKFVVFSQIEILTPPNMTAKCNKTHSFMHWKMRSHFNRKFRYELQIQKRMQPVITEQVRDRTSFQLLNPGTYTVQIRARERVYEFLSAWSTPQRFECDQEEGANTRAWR
As to the kind of experiment: BLI (Octet Red96e), CD123-Fc on anti-human IgG Fc capture sensors; measured twice, SD 0.4. A general note: Biolayer interferometry detects binding as a change in optical thickness at a sensor tip.

For assay [3], the target named is T1, recombinant purified CD123-Fc fusion …. Kind of assay: BLI (Octet Red96e), CD123-Fc on anti-human IgG Fc capture sensors; measured twice, SD 0.5.
For assay [4] the target is unchanged. As to the kind of experiment: BLI (Octet Red96e), CD123-Fc on anti-human IgG Fc capture sensors; measured twice, SD 1.5.
For assay [5] the target is unchanged. As to the kind of experiment: BLI (Octet Red96e), CD123-Fc on anti-human IgG Fc capture sensors; *low binding (>20 nM), one measurement only.
For assay [6] the target is unchanged. Kind of assay: BLI (Octet Red96e), CD123-Fc on anti-human IgG Fc capture sensors; measured twice, SD 7.5.
Assay [7] has the same target. As to the kind of experiment: BLI (Octet Red96e), CD123-Fc on anti-human IgG Fc capture sensors; measured twice, SD 4.3.
Assay [8] shares this target. As to the kind of experiment: BLI (Octet Red96e), CD123-Fc on anti-human IgG Fc capture sensors; measured twice, SD 0.7. As to the method:
Different sensors were then dipped in different concentrations of humanized 1D2-5C8var1 variants, starting at 50 nM and two-fold dilutions thereof; dilutions were made in 10x kinetic buffer (10×KB) provided by the supplier. From the obtained sensorgrams, the kinetic association- and dissociation rate constants were determined by curve fitting. The association- and dissociation rate constants, when fitting was possible, were used to calculate the affinity of the humanized 1D2-5C8var1 variants for binding to CD123. […] For reference, the non-humanized (parental) 1D2 was included in these experiments.

The target of assay [9] is Vγ9Vδ2 T cell receptor on expanded primary human Vγ9Vδ2 T cells (human), Q99603. Kind of assay: cell-based or functional assay.
Assay [10] deals with Recombinant human Vγ9Vδ2-Fc fusion protein (human) (UniProt Q99603). As to the kind of experiment: BLI (Octet RED96), Vγ9Vδ2-Fc captured on anti-human Fc sensors, VHH as analyte, 1:1 fit; mean of at least three measurements +/- SD.
For assay [11] the target is unchanged. As to the kind of experiment: BLI (Octet), single VHH on recombinant Vγ9Vδ2 TCR protein.
The target is the same in assay [12]. As to the kind of experiment: BLI (Octet), single VHH on recombinant Vγ9Vδ2 TCR.

Numbering of substitutions follows the chain as printed. Names may count otherwise.

Sequence of Vγ9Vδ2 T cell receptor on expanded primary human Vγ9Vδ2 T cells (human) (Q99603 21-122, stated change not applied, chain 1 of 2): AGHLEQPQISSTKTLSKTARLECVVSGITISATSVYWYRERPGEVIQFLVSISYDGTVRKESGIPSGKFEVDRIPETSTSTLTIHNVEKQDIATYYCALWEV
Sequence of Vγ9Vδ2 T cell receptor on expanded primary human Vγ9Vδ2 T cells (human) (A0JD36 20-115, stated change not applied, chain 2 of 2, further chain): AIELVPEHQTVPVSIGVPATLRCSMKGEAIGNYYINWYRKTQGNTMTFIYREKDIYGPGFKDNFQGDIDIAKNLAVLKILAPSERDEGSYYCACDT
Sequence of Vγ9Vδ2 T cell receptor on expanded primary human Vγ9Vδ2 T cells (human), Q99603 (Q99603 21-122, stated change not applied, chain 1 of 2): as the sequence (Q99603 21-122, stated change not applied, chain 1 of 2) above
Sequence of Vγ9Vδ2 T cell receptor on expanded primary human Vγ9Vδ2 T cells (human), Q99603 (A0JD36 20-115, stated change not applied, chain 2 of 2, further chain): as the sequence (A0JD36 20-115, stated change not applied, chain 2 of 2, further chain) above

In assay [1], “bispecific VHH 7D12-5C8 (non-humanized) (bispecific antibody)” gave an EC50 cytotoxicity (A431 tumour cell kill, 24 h) of 0.009 nM and an EC50 degranulation (CD107A+ Vγ9Vδ2 T cells, 4 h, A431 target cells) of 0.01 nM.

B1: SEQ ID NO 26 (Table 12): humanized 1D2 variant as bispecific VHH with 5C8var1 (bispecific antibody)
chain: EVQLVESGGGLVQPGGSLRLSCAASGRTASSYVMGWFRQAPGKEREFVSVINWNGDSTYYADSVKGRFTISRDNSKNTLYLQMNSLRAEDTAVYYCAADTRREWYRDGYWGPPARYEYDYRGQGTQVTVSSGGGGSEVQLLESGGGSVQPGGSLRLSCAASGRPFSNYAMSWFRQAPGKEREFVSAISWSGGSTSYADSVKGRFTISRDNSKNTLYLQMNSLRAEDTAVYYCAAQFSGADYGFGRLGIRGYEYDYWGQGTQVTVSS
As usually defined, the Kd is the free concentration of one partner at which half of the binding sites on the other are occupied at equilibrium, for simple one-to-one binding. Consider B1, for which the Kd in assay [2] worked out at 7.2 nM.

B2: SEQ ID NO 34 (Table 12): humanized 1D2 variant as bispecific VHH with 5C8var1 (bispecific antibody)
chain: B1 chain with P14A, F47W, S49A, A61T, T69A, S75A, L79V
For the molecule B2, the Kd in assay [3] stood at 2.6 nM.

B3: SEQ ID NO 30 (Table 12): humanized 1D2 variant as bispecific VHH with 5C8var1 (bispecific antibody)
chain: B1 chain with G35S, S49A, L79V, Q126L
As for B3, the Kd in [4] amounted to 7.7 nM.

B4: SEQ ID NO 31 (Table 12): humanized 1D2 variant as bispecific VHH with 5C8var1 (bispecific antibody)
chain: B1 chain with F37V, E44G, R45L, F47W, Q126L
As for B4, the Kd in [5] worked out at 29.1 nM.

B5: SEQ ID NO 33 (Table 12): humanized 1D2 variant as bispecific VHH with 5C8var1 (bispecific antibody)
chain: B1 chain with G35S, E44G, R45L, F47W, S49A, L79V, Q126L
In the case of B5, the Kd in assay [5] amounted to 44.1 nM.

B6: SEQ ID NO 27 (Table 12): humanized 1D2 variant as bispecific VHH with 5C8var1 (bispecific antibody)
chain: B1 chain with F37V, F47W, Q126L
For the molecule B6, the Kd in assay [5] stood at 24.5 nM.

B7: SEQ ID NO 29 (Table 12): humanized 1D2 variant as bispecific VHH with 5C8var1 (bispecific antibody)
chain: B1 chain with L11V, G35S, F47W, S49A, Q126T
Take B7: the Kd in assay [6] was 20 nM.

B8: SEQ ID NO 28 (Table 12): humanized 1D2 variant as bispecific VHH with 5C8var1 (bispecific antibody)
chain: B1 chain with G35S, F47W, S49A, L79V, Q126L
For B8, the Kd in assay [7] is 14.9 nM.

B9: SEQ ID NO 1 (Table 12): non-humanized (parental) anti-CD123 VHH 1D2 (VHH)
VHH: EVQLVESGGGLVQAGGSLRLSCAASGRTASSYVMGWFRQAPGKEREFVAVINWNGDSTYYTDSVKGRFAISRDNAKNTVYLQMNSLKPEDTAVYYCAADTRREWYRDGYWGPPARYEYDYRGQGTQVTVSS
notes: also called parental 1D2
With B9, the Kd in assay [8] turned out to be 3.1 nM.

B10: bispecific VHH 7D12var8-5C8var1-Y105F (bispecific antibody)
chain: EVQLVESGGGSVQPGGSLRLSCAASGRTSRSYGMGWFRQAPGKEREFVSGISWRGDSTGYADSVKGRFTISRDNAKNTVDLQMNSLRAEDTAVYYCAAAAGSAWYGTLYEYDYWGQGTLVTVSSGGGGSEVQLLESGGGSVQPGGSLRLSCAASGRPFSNYAMSWFRQAPGKEREFVSAISWSGGSTSYADSVKGRFTISRDNSKNTLYLQMNSLRAEDTAVYYCAAQFSGADFGFGRLGIRGYEYDYWGQGTQVTVSS
Take B10: in assay [9], the EC50 cytotoxicity (A431 tumour cell kill, 24 h) amounted to 0.0025 nM and the EC50 degranulation (CD107A+ Vγ9Vδ2 T cells, 4 h, A431 target cells) was found to be 0.011 nM.

B11: VHH 5C8var1 (VHH)
VHH: EVQLLESGGGSVQPGGSLRLSCAASGRPFSNYAMSWFRQAPGKEREFVSAISWSGGSTSYADSVKGRFTISRDNSKNTLYLQMNSLRAEDTAVYYCAAQFSGADYGFGRLGIRGYEYDYWGQGTQVTVSS
modifications: Y105 partly sulfated (as found for 5C8 and for 1D12var5-5C8var1)
As for B11, in [10], the Kd turned out to be 0.81 nM.

B12: VHH 5C8var1-Y105S (VHH)
VHH: B11 VHH with Y105S
On to B12, for which the Kd in [10] was 1.59 nM.

B13: VHH 5C8var1-Y105F (VHH)
VHH: B11 VHH with Y105F
Take B13: the results for the Kd in assay [11] and in [10] were 0.74 nM and 0.78 nM, respectively.

B14: VHH 5C8var1-Y105F/R109A (VHH)
VHH: B11 VHH with Y105F, R109A
Regarding B14, the Kd in [11] was 1.2 nM.

B15: VHH 5C8var1-Y105F/G108A (VHH)
VHH: B11 VHH with Y105F, G108A
Take B15: in assay [11], the equilibrium dissociation constant (Kd) is 9.2 nM. In addition, in assay [12], the fold reduction of affinity against 5C8var1-Y105F is 10 fold.

B16: VHH 5C8var1-Y105F/R109K (VHH)
VHH: B11 VHH with Y105F, R109K
As for B16, the Kd in assay [11] was 0.82 nM.
